Assays:
[1] = target: rat C3b (rat); experiment: SPR; Biacore 3000; rat C3b (1000RU) covalently coupled to the chip through its internal thioester after deposition by a convertase on a nidus of human C3b (50RU); different concentrations of the sCrry proteins flowed over; KD from steady state analysis
[2] = target: rat C3b (rat)

Kd [1]	Substance	IH50 of inhibition of AP-mediated haemolysis of guinea pig erythrocytes by rat serum, in terms of Crry molarity [2]
5.1 µM	soluble recombinant form of rat Crry containing the four N-terminal SCRs (domain or fragment)	
	rCrry-Ig (Fc fusion)	168 nM

Source: PMC2572221
